Measurements taken from patent publication US20060257406A1 (published 2006).
Residue numbers refer to the chain shown, from its start. Read-outs that look alike come from different tables or passages of the source. Values belong to the binder of their own block, whether it stands above or below them.

Columns and labels:
[1] = target: T1, human TNFα (human, UniProt P01375 77-233); test: TNF receptor assay (ELISA): inhibition of TNF binding to plate-bound TNF receptor 1-Fc
T1 construct: also called TAR1; TNF alpha

[2] = target: T1, human TNFα; test: as above; remark: listed apart in the source
[3] = target: T1, human TNFα; test: as above; remark: listed apart in the source
[4] = target: T1, human TNFα; test: as above; remark: listed apart in the source
[5] = target: T1, human TNFα; test: cell-based or functional assay
[6] = target: T2, mouse serum albumin (mouse, UniProt P07724 25-608); test: capture ELISA: dAb on protein L, biotinylated MSA, streptavidin-HRP
T2 construct: biotinylated MSA (about 2 biotins per molecule) in the capture ELISA; also called MSA
Protocol: Two rounds of selection were performed on serum albumin using each of the libraries separately. For each selection, antigen was coated on immunotube (nunc) in 4 ml of PBS at a concentration of 100 μg/ml. In the first round of selection, each of the three libraries was panned separately against HSA (Sigma) and MSA (Sigma). In the second round of selection, phage from each of the six first round selections was panned against (i) the same antigen again (eg 1st round MSA, 2nd round MSA) and (ii) against the reciprocal antigen (eg 1st round MSA, 2nd round HSA) resulting in a total of twelve 2nd round selections. In each case, after the second round of selection 48 clones were tested for binding to HSA and MSA. Soluble dAb fragments were produced as described for scFv fragments by Harrison et al, Methods Enzymol. 1996; 267:83-109 and standard ELISA protocol was followed (Hoogenboom et al. (1991) Nucleic Acids Res., 19: 4133) except that 2% tween PBS was used as a blocking buffer and bound dabs were detected with either protein LHRP (Sigma) (for the Vκs) and protein A—HRP (Amersham Pharmacia Biotech) (for the VHs).
Next, the serum albumin binding dAbs were tested for their ability to capture biotinylated antigen from solution. ELISA protocol (as above) was followed except that ELISA plate was coated with 1 μg/ml protein L (for the Vκ clones) and 1 μg/ml protein A (for the VH clones). Soluble dAb was captured from solution as in the protocol and detection was with biotinylated MSA or HSA and streptavidin HRP. The biotinylated MSA and HSA had been prepared according to the manufacturer's instructions, with the aim of achieving an average of 2 biotins per serum albumin molecule. […] Next, the dAbs were tested for their ability to bind MSA coated on a CM5 biacore chip.

[7] = target: T1, human TNFα; test: TNF receptor assay (ELISA): inhibition of TNF binding to plate-bound TNF receptor 1-Fc; remark: listed apart in the source

T1 sequence (P01375 77-233 limits assumed): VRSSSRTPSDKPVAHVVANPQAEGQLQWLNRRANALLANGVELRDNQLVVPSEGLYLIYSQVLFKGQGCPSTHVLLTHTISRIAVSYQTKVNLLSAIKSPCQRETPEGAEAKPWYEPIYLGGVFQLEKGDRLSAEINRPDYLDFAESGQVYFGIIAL
T2 sequence (P07724 25-608 limits assumed): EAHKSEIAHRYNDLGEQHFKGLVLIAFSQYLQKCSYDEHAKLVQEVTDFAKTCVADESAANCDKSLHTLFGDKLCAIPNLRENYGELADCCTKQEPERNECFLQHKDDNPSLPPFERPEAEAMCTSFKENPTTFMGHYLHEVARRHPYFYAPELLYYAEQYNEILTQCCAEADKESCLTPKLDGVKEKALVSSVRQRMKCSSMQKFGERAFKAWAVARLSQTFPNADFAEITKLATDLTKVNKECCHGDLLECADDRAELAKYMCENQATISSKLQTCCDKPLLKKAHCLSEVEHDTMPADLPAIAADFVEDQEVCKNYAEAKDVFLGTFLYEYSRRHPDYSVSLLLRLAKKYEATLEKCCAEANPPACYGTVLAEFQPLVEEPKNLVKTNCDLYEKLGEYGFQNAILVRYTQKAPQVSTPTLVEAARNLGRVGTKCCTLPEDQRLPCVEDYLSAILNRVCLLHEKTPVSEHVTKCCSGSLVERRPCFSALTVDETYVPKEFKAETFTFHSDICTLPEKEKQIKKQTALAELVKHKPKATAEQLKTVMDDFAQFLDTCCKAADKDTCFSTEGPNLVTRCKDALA

IC50 [4]: ~2 nM
CA (cell assay) ND50 [5]: ~3 nM
B4: TAR1-5-19 5U homodimer (other)
chain: DIQMTQSPSSLSASVGDRVTITCRASQSIDSYLHWYQQKPGKAPKLLIYSASELQSGVPSRFSGSGSGTDFTLTISSLQPEDFATYYCQQVVWRPFTFGQGTKVEIKRGGGGSGGGGSGGGGSGGGGSGGGGSDIQMTQSPSSLSASVGDRVTITCRASQSIDSYLHWYQQKPGKAPKLLIYSASELQSGVPSRFSGSGSGTDFTLTISSLQPEDFATYYCQQVVWRPFTFGQGTKVEIKR
notes: also called TAR1-5-19 homodimer with (Gly4Ser)5 linker

IC50 [3]: ~10 nM
B7: TAR1-5-19 d6 (other)
chain: DIQMTQSPSSLSASVGDRVTITCRASQSIDSYLHWYQQKPGKAPKLLIYSASELQSGVPSRFSGSGSGTDFTLTISSLQPEDFATYYCQQVVWRPFTFGQGTKVEIKRGGGGSGGGGSGGGGSGGGGSGGGGSGGGGSGGGGSDIQMTQSPSSLSASVGDRVTITCRASQSIYDALEWYQQKPGKAPKLLIYTASRLQSGVPSRFSGSGSGTDFTLTISSLQPEDFATYYCQQVMQRPVTFGQGTKVEIK

IC50 [2]: ~3 nM
B10: TAR1-5d4 (other)
chain: DIQMTQSPSSLSASVGDRVTITCRASQSIFMNLLWYQQKPGKAPKLLIYNASVLQSGVPSRFSGSGSGTDFTLTISSLQPEDFATYYCQQVVWRPFTFGQGTKVEIKRGGGGSGGGGSGGGGSGGGGSGGGGSDIQMTQSPSSLSASVGDRVTITCRASQSVKEFLWWYQQKPGKAPKLLIYMASNLQSGVPSRFSGSGSGTDFTLTISSLQPEDFATYYCQQKFKLPRTFGQGTKVEIK
notes: FPLC purified small dimeric species; also called TAR1-5 dimer 4

IC50 [3]: ~8 nM
B11: TAR1-5-19d5 (other)
scFv: DIQMTQSPSSLSASVGDRVTITCRASQSIDSYLHWYQQKPGKAPKLLIYSASELQSGVPSRFSGSGSGTDFTLTISSLQPEDFATYYCQQVVWRPFTFGQGTKVEIKRGGGGSGGGGSGGGGSGGGGSGGGGSDIQMTQSPSSLSASVGDRVTITCRASQSIYDALEWYQQKPGKAPKLLIYTASRLQSGVPSRFSGSGSGTDFTLTISSLQPEDFATYYCQQVMQRPVTFGQGTKVEIK

IC50 [4]: ~2 nM
B12: TAR1-5-19 cys hinge (other)
chain: DIQMTQSPSSLSASVGDRVTITCRASQSIDSYLHWYQQKPGKAPKLLIYSASELQSGVPSRFSGSGSGTDFTLTISSLQPEDFATYYCQQVVWRPFTFGQGTKVEIKREPKSGDKTHFCPPCP
notes: also called cysteine hinge linker format; hinge dimer

IC50 [7]: ~6 nM
B14: dAb1 CH/TAR1-5-19CK (Fab, V domains shown)
V domain 1: DIQMTQSPSSLSASVGDRVTITCRASQSIYDALEWYQQKPGKAPKLLIYTASRLQSGVPSRFSGSGSGTDFTLTISSLQPEDFATYYCQQVMQRPVTFGQGTKVEIK
V domain 2: B14 V domain 1 with Y30D, D31S, A32Y, E34H, T50S, R53E, M92V, Q93W, V96F
notes: also called TAR1-5-19CK d1CH

IC50 [7]: ~100 nM
B15: dAb3CH/TAR1-5CK (Fab, V domains shown)
V domain 1: DIQMTQSPSSLSASVGDRVTITCRASQSVKEFLWWYQQKPGKAPKLLIYMASNLQSGVPSRFSGSGSGTDFTLTISSLQPEDFATYYCQQKFKLPRTFGQGTKVEIK
V domain 2: B14 V domain 1 with Y30F, D31M, A32N, E34L, T50N, R53V, M92V, Q93W, V96F
notes: also called TAR1-5CK d3CH

IC50 [7]: ~90 nM
B17: TAR1-5CH/dAb1 CK (Fab, V domains shown)
V domain 1: B14 V domain 1 with Y30F, D31M, A32N, E34L, T50N, R53V, M92V, Q93W, V96F
V domain 2: B14 V domain 1

Second part, the binder before the results:

B1: TAR1-5-19CYS dimer (other)
chain: DIQMTQSPSSLSASVGDRVTITCRASQSIDSYLHWYQQKPGKAPKLLIYSASELQSGVPSRFSGSGSGTDFTLTISSLQPEDFATYYCQQVVWRPFTFGQGTKVEIKRC
modifications: disulphide between the C-terminal Cys of the two chains
notes: separated from monomer by cation exchange; also called the dimer
IC50 [1]: 0.3 to 0.8 nM

B2: TAR1-5d1 (other)
chain: DIQMTQSPSSLSASVGDRVTITCRASQSIFMNLLWYQQKPGKAPKLLIYNASVLQSGVPSRFSGSGSGTDFTLTISSLQPEDFATYYCQQVVWRPFTFGQGTKVEIKRGGGGSGGGGSGGGGSDIQMTQSPSSLSASVGDRVTITCRASQSIYDALEWYQQKPGKAPKLLIYTASRLQSGVPSRFSGSGSGTDFTLTISSLQPEDFATYYCQQVMQRPVTFGQGTKVEIK
notes: dAb-linker-dAb dimer; FPLC purified small dimeric species; also called dimer 1
IC50 [2]: ~30 nM

B3: TAR1-5-19 d1 (other)
chain: B2 chain with F30D, M31S, N32Y, L34H, N50S, V53E
IC50 [3]: ~15 nM

B5: TAR1-5-19, MSA16 cys bonded heterodimer (bispecific antibody, V domains shown)
V domain 1: DIQMTQSPSSLSASVGDRVTITCRASQSIDSYLHWYQQKPGKAPKLLIYSASELQSGVPSRFSGSGSGTDFTLTISSLQPEDFATYYCQQVVWRPFTFGQGTKVEIKR
V domain 2: DIQMTQSPSSLSASVGDRVTITCRASQSIIKHLKWYQQKPGKAPKLLIYGASRLQSGVPSRFSGSGSGTDFTLTISSLQPEDFATYYCQQGARWPQTFGQGTKVEIKR
modifications: C-terminal Cys disulphide bonded to the C-terminal Cys of the MSA16 chain ; chain 1 pos 109 Cys and chain 2 pos 109 Cys are joined by an intermolecular disulphide bond (chemical coupling via dithiodipyridine); no tags
notes: two Vκ dAbs joined by a disulphide bond; separated from monomers by cation exchange; also called disulphide bonded heterodimer of TAR1-5-19 dAb and MSA16 dAb; heterodimeric species
IC50 [1]: ~18 nM

B6: TAR1-5d6 (other)
chain: B7 chain with D30F, S31M, Y32N, H34L, S50N, E53V
notes: FPLC purified large dimeric species; also called dimer 6
IC50 [2]: ~100 nM

B8: TAR1-5-19 3U homodimer (other)
chain: DIQMTQSPSSLSASVGDRVTITCRASQSIDSYLHWYQQKPGKAPKLLIYSASELQSGVPSRFSGSGSGTDFTLTISSLQPEDFATYYCQQVVWRPFTFGQGTKVEIKRGGGGSGGGGSGGGGSDIQMTQSPSSLSASVGDRVTITCRASQSIDSYLHWYQQKPGKAPKLLIYSASELQSGVPSRFSGSGSGTDFTLTISSLQPEDFATYYCQQVVWRPFTFGQGTKVEIKR
notes: also called TAR1-5-19 homodimer with (Gly4Ser)3 linker
IC50 [4]: ~20 nM
CA (cell assay) ND50 [5]: ~30 nM

B9: TAR1-5d5 (other)
chain: B11 scFv with D30F, S31M, Y32N, H34L, S50N, E53V
notes: FPLC purified large dimeric species; also called dimer 5
IC50 [2]: ~200 nM

B13: anti-serum albumin Vκ dAb clones 30, 35 (other)
VL: DIQMTQSPSSLSASVGDRVTITCRASQSIRRYLKWYQQKPGKAPKLLIYQASVLQSGVPSRFSGSGSGTDFTLTISSLQPEDFATYYCQQGLYPPITFGQGTKVEIK
binding result [6]: binds

B16: TAR1-5-19CH/dAb1 CK (Fab, V domains shown)
V domain 1: B14 V domain 1 with Y30D, D31S, A32Y, E34H, T50S, R53E, M92V, Q93W, V96F
V domain 2: B14 V domain 1
notes: also called TAR1-5-19CH d1CK
IC50 [7]: ~6 nM

B18: anti-serum albumin Vκ dAb clones 46, 47, 52, 56 (other)
VL: B13 VL with R30F, R31K, Y32S, Q50N, V53Y, G91V, L92V, P94W, I96V
notes: same printed CDRs as clone 55
binding result [6]: binds

B19: TAR1-5-19CH/dAb3CK (Fab, V domains shown)
V domain 1: B14 V domain 1 with Y30D, D31S, A32Y, E34H, T50S, R53E, M92V, Q93W, V96F
V domain 2: B15 V domain 1
notes: also called TAR1-5-19CH d3CK
IC50 [7]: ~3 nM

B20: TAR1-5-19 7U homodimer (other)
chain: DIQMTQSPSSLSASVGDRVTITCRASQSIDSYLHWYQQKPGKAPKLLIYSASELQSGVPSRFSGSGSGTDFTLTISSLQPEDFATYYCQQVVWRPFTFGQGTKVEIKRGGGGSGGGGSGGGGSGGGGSGGGGSGGGGSGGGGSDIQMTQSPSSLSASVGDRVTITCRASQSIDSYLHWYQQKPGKAPKLLIYSASELQSGVPSRFSGSGSGTDFTLTISSLQPEDFATYYCQQVVWRPFTFGQGTKVEIKR
notes: also called TAR1-5-19 homodimer with (Gly4Ser)7 linker
IC50 [4]: ~10 nM
CA (cell assay) ND50 [5]: ~15 nM
